These results are taken from patent US20200277405A1, “COMPOSITION FOR ANTIBODY-DRUG CONJUGATE DIRECTED AGAINST TUMOR-CELL ASSOCIATED POLYSIALIC ACID” (Cornell University, priority 2019, published 2020).

“Also recorded” adds a separate entry of the source.

One experiment addresses NCAM (Homo sapiens, UniProt P13591). Particulars: Target NCAM; literature; cited from earlier work.
The target of experiment [1] is chicken brain-derived polysialylated neural cell adhesion molecule (NCAM) (chicken) (UniProt P13590). Nature of the experiment: ELISA, NCAM coated on the plate, ch735 titrated (x axis 'ch735 [ng/mL]'), HRP secondary, Abs450.
For experiment [2] the target is unchanged. Nature of the experiment: ELISA, chicken brain NCAM coated on the plate, ch735 titrated, anti-human IgG secondary, Abs370. For orientation: ELISA stands for enzyme-linked immunosorbent assay.
Experiment [3] shares this target. Nature of the experiment: SPR (Biacore 3000), antibody captured on Protein A chip, NCAM 0.25-250 nM in solution, equilibrium fit with Hill slope. A general note: Surface plasmon resonance follows binding to a sensor surface in real time, without labels.
Experiment [4] has the same target. In words: ELISA, chicken brain NCAM coated on the plate, mo735 titrated, anti-mouse IgG secondary, Abs370.
For experiment [5] the following is noted: Nagae et al.; cited from earlier work.
The test system of experiment [6] is MCF7 (polySia negative externally) cells. In words: Internalization of scFv735, MCF7. The conditions noted are these: MCF7, 2 hours, 0-1,000 nM. In kind it is cell-based, human. From the text:
(§1) FIG. 15 depicts cellular internalization of a polySia-specific single-chain Fv (scFv735) constructed by genetically fusing together the DNA encoding the variable heavy (VH) and variable light (VL) genes derived from mo735 with a flexible GlySer linker.
(§2) A polySia-specific single-chain […] (scFV735) was constructed by genetically fusing together the DNA encoding the variable heavy (VH) and variable light (VL) genes derived from mo735 with a flexible GlySer linker. Alexa Fluor 488 labeled scFv735 was incubated with SW2 (polySia positive externally) and MCF7 (polySia negative externally) cells for 2 hours at different concentrations ranging from 0-1,000 nM at either 4° C. or 37° C. (internalization). After incubation, the cells were washed and extracellular fluorescence was quenched with 0.2% Trypan Blue. Intracellular Fluoresence (geometric mean fluorescence intensity, MFI) indicative of internalized scFv735 was measured by flow cytometery.

Experiment [7] has as its system SW2 (polySia positive externally) cells. In words: Internalization of scFv735, SW2. It is filed as cell-based, human.
Description: as §1, §2

B1: Lorvotuzumab DM1: CD56-targeting antibody-drug conjugate, literature (conjugate, chains of the INN, looked up)
VH: QVQLVESGGGVVQPGRSLRLSCAASGFTFSSFGMHWVRQAPGKGLEWVAYISSGSFTIYYADSVKGRFTISRDNSKNTLYLQMNSLRAEDTAVYYCARMRKGYAMDYWGQGTLVTVSS
VL: DVVMTQSPLSLPVTLGQPASISCRSSQIIIHSDGNTYLEWFQQRPGQSPRRLIYKVSNRFSGVPDRFSGSGSGTDFTLKISRVEAEDVGVYYCFQGSHVPHTFGQGTKVEIK
modifications: DM1 mertansine payload
notes: CD56-targeting antibody-drug conjugate, literature
What is called EC50 is the concentration that produces a half-maximal response. Turning to B1, the EC50 with NCAM is 0.2 to 5 nM.

B2: chimeric human IgG1 mAb ch735 (antibody, V domains shown)
VH: QIQLQQSGPELVRPGASVKISCKASGYTFTDYYIHWVKQRPGEGLEWIGWIYPGSGNTKYNEKFKGKATLTVDTSSSTAYMQLSSLTSEDSAVYFCARGGKFAMDYWGQGTSVTVSS
VL: DVVMTQTPLSLPVSLGDQASISCRSSQSLVHSNGNTYLYWYLQKPGQSPKPLIYRVSNRFSGVPDRFSGSGSGTDFTLKISRVEAEDLGVYFCFQGTHVPYTFGGGTRLEIK
In general, EC50 (read off the curve) refers to the concentration that produces a half-maximal response. A high value points to lower potency in that assay. In general, Kd refers to the constant that tells how readily two partners part at equilibrium. Read a low Kd as higher affinity. As to B2, the half-maximal effective concentration (EC50 (read off the curve)) in experiment [1] and in experiment [2] was 10 ng/mL each time. In experiment [3], the Kd came to 4.79 nM.

B3: mouse IgG2a mAb 735 (mo735) (antibody, V domains shown)
VH: QIQLQQSGPELVRPGASVKISCKASGYTFTDYYIHWVKQRPGEGLEWIGWIYPGSGNTKYNEKFKGKATLTVDTSSSTAYMQLSSLTSEDSAVYFCARGGKFAMDYWGQGTSVTVSS
VL: DVVMTQTPLSLPVSLGDQASISCRSSQSLVHSNGNTYLYWYLQKPGQSPKPLIYRVSNRFSGVPDRFSGSGSGTDFTLKISRVEAEDLGVYFCFQGTHVPYTFGGGTRLEIK
Consider B3, for which the EC50 (read off the curve) in experiment [4] is 10 ng/mL. In experiment [3], this molecule showed a dissociation constant (Kd) of 10.2 nM.

B4: scFv735: polySia-specific single-chain Fv fusing VH and VL of mo735 with a flexible GlySer linker (protein)
scFv: DVVMTQTPLSLPVSLGDQASISCRSSQSLVHSNGNTYLYWYLQKPGQSPKPLIYRVSNRFSGVPDRFSGSGSGTDFTLKISRVEAEDLGVYFCFQGTHVPYTFGGGTRLEIKGGGGSGGGGSGGGGSQIQLQQSGPELVRPGASVKISCKASGYTFTDYYIHWVKQRPGEGLEWIGWIYPGSGNTKYNEKFKGKATLTVDTSSSTAYMQLSSLTSEDSAVYFCARGGKFAMDYWGQGTSVTVSS
As to B4, in experiment [5], the “degree of polymerization (DP) of shorter sialic acids bound” value is roughly 3. Also, the “internalization (intracellular fluorescence)” value in experiment [6] is “not”; in experiment [7] (SW2, 2 hours, 0-1,000 nM, 37° C.), “observed to internalize; also recorded: increase with increasing concentration”; in experiment [7] (temperature reduced to 4° C.), “blocked”.
